Non-standard residues stand in square brackets, D forms with d. Hyp = O=C(O)[C@@H]1C[C@@H](O)CN1
T1: murine E^d MHC class II allele (Mus musculus, UniProt P01904+P01915)
T1 sequence (P01904 26-255): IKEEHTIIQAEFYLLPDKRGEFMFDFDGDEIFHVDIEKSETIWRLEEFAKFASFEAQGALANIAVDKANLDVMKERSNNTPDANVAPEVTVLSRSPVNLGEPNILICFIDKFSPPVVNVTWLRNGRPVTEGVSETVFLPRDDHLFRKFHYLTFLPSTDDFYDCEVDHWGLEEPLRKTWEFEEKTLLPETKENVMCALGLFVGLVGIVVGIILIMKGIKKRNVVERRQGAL
T1 sequence (P01915 27-264 limits assumed): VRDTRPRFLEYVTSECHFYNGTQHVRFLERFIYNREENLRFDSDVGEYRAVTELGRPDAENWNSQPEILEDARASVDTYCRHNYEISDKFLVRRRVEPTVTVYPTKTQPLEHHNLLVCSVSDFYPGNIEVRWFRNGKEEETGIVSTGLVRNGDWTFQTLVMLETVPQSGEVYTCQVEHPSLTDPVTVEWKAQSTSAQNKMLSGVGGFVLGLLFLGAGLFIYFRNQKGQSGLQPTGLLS

B1: AE381 (peptide)
peptide: LRMKLPK
modifications: head-to-tail cyclization: the amino terminal amino group is coupled through an amide linkage to the carboxyl terminal group
B2: AE143 (peptide)
peptide: Ac-YRMKL[Hyp]KSAK-NH2
SMILES: CSCC[C@H](NC(=O)[C@H](CCCNC(=N)N)NC(=O)[C@H](Cc1ccc(O)cc1)NC(C)=O)C(=O)N[C@@H](CCCCN)C(=O)N[C@@H](CC(C)C)C(=O)N1C[C@H](O)C[C@H]1C(=O)N[C@@H](CCCCN)C(=O)N[C@@H](CO)C(=O)N[C@@H](C)C(=O)N[C@@H](CCCCN)C(N)=O

Experiments:
[1] = system: murine E^k MHC class II allele; experiment: simultaneous assay, E^k allele (CH27 APC, TPc9.1 T hybridoma, THMCC82-103 or PGCC81-104); type: cell-based; conditions: Table 12, supernatant 1:4
Outline: (§1)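 Antigenic peptide, mitomycin C-treated APC, effector compound and allele-restricted T hybridoma cultured together for 24 h. Supernatant then transferred to interleukin-dependent HT-2 cells. T cell activation quantified as [3H]TdR uptake by HT-2 cells.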

[2] = molecular target: T1, murine E^d MHC class II allele; experiment: AE101 series peptide prepulse assay, E^d allele; type: cell-based; conditions: Table 35; AE101 series peptide prepulse 64 μM; antigenic peptide 0.3 μM; supernatant dilution 1:4
Method: (§2) Table 35: Activities of multiple substitution analogs of AE235, targeting the E^k and E^d allele, in an AE101 series peptide prepulse assay. In this assay the concentration of AE101 series peptides used during the prepulse was 64 μM. The concentrations of antigenic peptides were 0.3 μM for Ed and 0.4 μM for E^k. The supernatant dilutions taken into the HT-2 cell assay was 1:4 for E and 1:2 for E^k. The AE381 peptide is a head-to-tail cyclization: the amino terminal amino group is coupled through an amide linkage to the carboxyl terminal group. The AE 382 peptide is a side-to-tail cyclization: the epsilon amino group of Lys^4 is coupled through an amide linkage to the carboxyl terminal group.
(§3) AE101 series peptide prepulse assays were carried out in the E^d and E^k systems as described for simultaneous competition assays with the following modifications. Fixed APC were first incubated for 6 h at 1×10^6DMEM-5% FCS with 64 μM of each AE101 series peptide or with PBS. The APC were then washed four times with ten volumes of DMEM-5% FCS, and were cocultured with T hybridoma cells and the indicated submaximal doses of antigenic peptides used in the simultaneous competition assays. The baseline T cell response was measured by culturing T hybridoma cells with antigenic peptide and PBS-pretreated APC.

[3] = system: murine E^k MHC class II allele; experiment: AE101 series peptide prepulse assay, E^k allele; type: cell-based; conditions: Table 35; AE101 series peptide prepulse 64 μM; antigenic peptide 0.4 μM; supernatant dilution 1:2
Method: as §2, §3

[4] = molecular target: T1, murine E^d MHC class II allele; experiment: simultaneous assay, E^d allele (A20 APC, G28.C9 T hybridoma, HEL106-116; HT-2 [3H]TdR readout); type: cell-based; set-up: The A20 and CH27 B cell lymphoma lines express H-2^d and H-2^k alleles, respectively; endogenous in cells; host or cells: A20 B cell lymphoma (mitomycin C-treated or paraformaldehyde-fixed); conditions: Table 12, supernatant 1:2
Outline: as §1

[5] = molecular target: soluble HLA-DR1 (HLA-DR alpha truncated after Asn192 with a C-terminal nine amino acid HA epitope tail; HLA-DR1 beta truncated after Lys198), made in Baculovirus-infected insect cells (human); experiment: exchange ELISA: tethered HLA-DR1 preloaded with unlabeled hMBP(90-102) 50 uM, washed; biotin-hMBP(90-102) 50 uM alone, no AE peptide, 1 h 37 C
[6] = molecular target: soluble HLA-DR1 (HLA-DR alpha truncated after Asn192 with a C-terminal nine amino acid HA epitope tail; HLA-DR1 beta truncated after Lys198), made in Baculovirus-infected insect cells (human); experiment: release ELISA as Table 36; unlabeled hMBP(90-102) 250 uM alone against prebound biotin-hMBP(90-102) on tethered HLA-DR1
[7] = molecular target: soluble HLA-DR1 (HLA-DR alpha truncated after Asn192 with a C-terminal nine amino acid HA epitope tail; HLA-DR1 beta truncated after Lys198), made in Baculovirus-infected insect cells (human); experiment: release ELISA as Table 36 (biotin-hMBP(90-102) left on tethered HLA-DR1); AE peptide 1 uM, without unlabeled hMBP(90-102)
[8] = molecular target: soluble HLA-DR1 (HLA-DR alpha truncated after Asn192 with a C-terminal nine amino acid HA epitope tail; HLA-DR1 beta truncated after Lys198), made in Baculovirus-infected insect cells (human); experiment: release ELISA as Table 36 (biotin-hMBP(90-102) left on tethered HLA-DR1); AE peptide 64 uM, without unlabeled hMBP(90-102)
[9] = molecular target: soluble HLA-DR1 (HLA-DR alpha truncated after Asn192 with a C-terminal nine amino acid HA epitope tail; HLA-DR1 beta truncated after Lys198), made in Baculovirus-infected insect cells (human); experiment: release ELISA as Table 36 (biotin-hMBP(90-102) left on tethered HLA-DR1); AE peptide 1 uM, with unlabeled hMBP(90-102) 250 uM
[10] = molecular target: soluble HLA-DR1 (HLA-DR alpha truncated after Asn192 with a C-terminal nine amino acid HA epitope tail; HLA-DR1 beta truncated after Lys198), made in Baculovirus-infected insect cells (human); experiment: release ELISA as Table 36 (biotin-hMBP(90-102) left on tethered HLA-DR1); AE peptide 64 uM, with unlabeled hMBP(90-102) 250 uM
[11] = molecular target: soluble HLA-DR1 (HLA-DR alpha truncated after Asn192 with a C-terminal nine amino acid HA epitope tail; HLA-DR1 beta truncated after Lys198), made in Baculovirus-infected insect cells (human); experiment: loading ELISA: empty tethered HLA-DR1 with biotin-hMBP(90-102) 50 uM and AE peptide 64 uM, 1 h 37 C; biotin bound read by avidin-HRP
[12] = molecular target: soluble HLA-DR1 (HLA-DR alpha truncated after Asn192 with a C-terminal nine amino acid HA epitope tail; HLA-DR1 beta truncated after Lys198), made in Baculovirus-infected insect cells (human); experiment: exchange ELISA: tethered HLA-DR1 preloaded with unlabeled hMBP(90-102) 50 uM, washed; AE peptide plus biotin-hMBP(90-102) 50 uM, 1 h 37 C; biotin bound as fraction of positive control (overnight loading)
[13] = molecular target: soluble HLA-DR1 (HLA-DR alpha truncated after Asn192 with a C-terminal nine amino acid HA epitope tail; HLA-DR1 beta truncated after Lys198), made in Baculovirus-infected insect cells (human); experiment: release ELISA: soluble HLA-DR1 tethered by 12CA5 and preloaded with biotin-hMBP(90-102); AE peptide 64 uM, 1 h 37 C, no unlabeled peptide; biotin still bound read by avidin-HRP (1.0 = PBS control, 0.0 = no DR1; low value = released)
[14] = molecular target: soluble HLA-DR1 (HLA-DR alpha truncated after Asn192 with a C-terminal nine amino acid HA epitope tail; HLA-DR1 beta truncated after Lys198), made in Baculovirus-infected insect cells (human); experiment: release ELISA as Table 36; AE101 1 uM, without unlabeled hMBP(90-102)
[15] = AE peptide 16 μM (second value)

Molecule | Relative Release (fraction of positive control o.d.) [7] | Relative Release (fraction of positive control o.d.) [8] | Relative Release (fraction of positive control o.d.) [9] | Relative Release (fraction of positive control o.d.) [10] | Relative Enhancement (of biotin-hMBP(90-102) binding to empty HLA-DR1) (relative to no AE peptide = 1) [11] | Relative Binding (of biotin-hMBP(90-102) to HLA-DR1) (fraction of positive control o.d.) [12] | Relative Release (fraction of positive control o.d.) [13] | also measured
Ac-LRMKlpk-NH2 [AE172] | – | – | – | – | – | – | – | Times Baseline Response, E^k ([1]; AE peptide 1 μM (fourth value)): 2.8; Times Baseline Response, E^k ([1]; AE peptide 4 μM (third value)): 4.2; Times Baseline Response, E^k [1, 15]: 21.1; Times Baseline Response, E^k ([1]; AE peptide 64 μM (first value)): 46.2; T cell response relative to baseline with PBS-pretreated APC (NONE = 1.0), E^d [2]: 1.1; T cell response relative to baseline with PBS-pretreated APC (NONE = 1.0), E^k [3]: 2.1; Times Baseline Response, E^d ([4]; AE peptide 1 μM (fourth value)): 2; Times Baseline Response, E^d ([4]; AE peptide 4 μM (third value)): 2; Times Baseline Response, E^d [4, 15]: 7; Times Baseline Response, E^d ([4]; AE peptide 64 μM (first value)): 54
N-terminally biotin-labeled human myelin basic protein peptide hMBP(90-102) (from UniProt P02686 90-102) | – | – | – | – | – | – | – | Relative Binding (fraction of positive control o.d.) [5]: 0.08
unlabeled human myelin basic protein peptide hMBP(90-102) (from UniProt P02686 90-102) | – | – | – | – | – | – | – | Relative Release (fraction of positive control o.d.) [6]: 0.81
Ac-LRMKYPK-NH2 [AE235] | 1.05 | 0.81 | 0.48 | 0.6 | 0.61 | 0.15 | 0.79 | –
B1 | 0.64 | 0.5 | 0.09 | -0.19 | 1.84 | -0.12 | – | –
YRMKLPKSAKPVSQMR [AE101] | – | – | – | – | 2.66 | 0.31 | -0.33 | Relative Release (fraction of positive control o.d.) [14]: 0.02
Ac-LRLKLPK-NH2 [AE206] | 0.58 | 0.08 | 0.03 | -0.29 | 2.57 | -0.13 | – | –
YRMKLPKSAK [AE108] | 0.52 | 0.31 | 0 | 0.14 | – | – | 1.14 | –
B2 | 0.51 | 0.58 | 0.35 | 0.21 | – | – | – | –
